Measurements published in PMC2953525, “Subtle Alterations in PCNA-Partner Interactions Severely Impair DNA Replication and Repair” (PLoS Biology, 2010).

Tests used:
Apn2 = test: Yeast two hybrid (Y2H) analysis of PCNA-partner interaction; assay type: binding; set-up: key: ++: major increase in growth; +: moderate increase in growth; similar growth as the WT PCNA-expressing cells; -: minor decrease in growth; --: moderate decrease in growth; ---: major decrease in growth; conditions: spotting onto selective agar plates; PCNA fused to AD, partner to BD
Rfc1 = test: as above; assay type: binding; set-up: key: ++: major increase in growth; +: moderate increase in growth; similar growth as the WT PCNA-expressing cells; -: minor decrease in growth; --: moderate decrease in growth; ---: major decrease in growth; conditions: spotting onto selective agar plates; PCNA fused to AD, partner to BD
CAN1 gene = test: Spontaneous mutation rate, CAN1 reporter assay, fluctuation analysis; assay type: cell-based, yeast; conditions: for Spontaneous Mutation Rate Can^R (Fold Increase): Table 1, compared to the WT POL30 strain
Text: It was previously shown that PCNA contains another site of regulation (i.e. K164) that is modulated by ubiquitination or SUMOylation (Figure 1B) and that is crucial for the recruitment of TLS polymerases,[37]. To test whether the K164 regulatory site is active in the PCNA mutant strains, we examined the spontaneous mutation rate in these strains (Table 1). Increase in spontaneous mutation rate can indicate the recruitment of TLS polymerases to PCNA through K164 ubiquitination,[37]. Alternatively, these mutants can indirectly affect the spontaneous mutation rate by reducing DNA replication processivity and causing replication fork stalling, thereby leading to TLS recruitment. These mutants can also indirectly alter Pol-δ or Pol-ε proofreading leading to TLS recruitment. We measured the spontaneous mutation rate using the CAN1 reporter assay by monitoring the ability of the PCNA mutant strains to grow in the presence of canavanine, a toxic analogue of arginine. […] To examine whether Polζ, the major TLS polymerase,[37], is recruited in vivo to PCNA mutants showing increased affinity for Rad27 and Pol32 (pol30-Rad27E6 and pol30-Pol32E5, Table 1) upon K164 ubiquitination, we measured the spontaneous mutation rates of these mutant strains on the background of either mutated rev3 encoding the catalytic subunit of Polζ or mutated rad18 encoding the K164 ubiquitin ligase or K164R mutation (Figure 7, Table 2).
Novel haploids containing PCNA mutants were generated using the plasmid shuffling method. Briefly, a pol30::KanMX magic marker heterozygote diploid strain BY4743 (Open Biosystem) was transformed with plasmid pRS316-POL30. Following dissection of the diploid, a haploid containing the CAN+ gene and plasmid pRS316-POL30 as a sole source of PCNA was generated. This host strain was transformed with selected pRS315-pol30 mutants, plated on SC-Ura-Leu plates, followed by replica plating to SC-Leu+5FOA plates. Haploids, containing PCNA mutants as a sole source, were further verified by plating on either SC-Leu or SC-Ura plates. For testing selected PCNA mutants, a haploid containing rad27::HYG, rad30::HYG, pol32::HYG, msh6::HYG, or ung1::HYG were generated using plasmid pAG32 by conventional genetic approaches. Growth of the PCNA mutant strains in the presence of 120 mM HU (Toronto Research Chemicals) or 0.02% MMS (Sigma) was performed as described. To examine the effects of partner overexpression on pol30 mutant strains, these strains were transformed with various plasmids containing GST-tagged PCNA partner encoding genes under the control of a GAL1/10 inducible promoter, as previously described. Overnight cultures were plated in serial dilutions on SC-Ura containing either glucose or galactose with or without DNA-damaging agents, as described above.
The mutation rates for the different pol30 mutant strains described in this study were determined by fluctuation test analysis using the Lea and Coulson method,[48]. The different strains were plated as single colonies on SC-Leu plates and allowed to grow for 3 d at 30°C. At least 25 single colonies from each strain were excised from the plate and resuspended in 1 ml of sterile water to an O.D600 of 0.7. Appropriate dilutions of the cells were then plated on SC-Leu and SC-Leu-Arg+canavanine ([…]) to obtain the number of viable cells (Nt) and the number of canavanine-resistant cells (r), respectively. Using the Lea and Coulson method, the number of mutations (m) per colony was derived from the number of canavanine resistant-colonies (r) across parallel cultures, using the following equation: […]. The m values were then used to calculate the mutation rate, M, using the following equation: M = m/Nt, where Nt is the average number of viable cells per plating. The different M values were sorted to obtain the median. […]

B1: pol30-Pol32E9 (protein)
chain: MLEAKFEEASLFKRIIDGFKDCVQLVNFQCKEDGIIAQAVDDSRVLLVSLEIGVEAFQEYRCDHPVTLGMDLTSLSKILRCGNNTDTLTLIADNTPDSIILLFEDTKKDRIAEYSLKLMDNDVDSLKIIELQYDSTLSLPSSEFSKIVRDLSQLSDSINIMITKETIKFVADGDIGSGSVIIKPFVDMEHPETSIKLEMDQPVDLTFGAKYLLDIIKGSSLSDRVGIRLSSEAPALFQFDLKSGFLQFFLAPKFNDEE
modifications: left off: Gal4 activation domain, end not stated, kept
- Y2H growth relative to WT PCNA-expressing strain: Apn2 (Apn2): WT
- Y2H growth relative to WT PCNA-expressing strain: Rfc1 (Rfc1): WT
- Spontaneous Mutation Rate Can^R (Fold Increase) (CAN1 gene): 4 fold

B2: pol30-Msh6E2: PCNA mutant evolved for Msh6, IDCL sequence DYDRDMLKISEL (protein)
chain: MLEAKFEEASLFKRIIDGFKDCVQLVNFQCKEDGIIAQAVDDSRVLLVSLEIGVEAFQEYRCDHPVTLGMDLTSLSKILRCGNNTDTLTLIADNTPDSIILLFEDTKKDRIAEYSLKLMDYDRDMLKISELQYDSTLSLPSSEFSKIVRDLSQLSDSINIMITKETIKFVADGDIGSGSVIIKPFVDMEHPETSIKLEMDQPVDLTFGAKYLLDIIKGSSLSDRVGIRLSSEAPALFQFDLKSGFLQFFLAPKFNDEE
modifications: left off: Gal4 activation domain, end not stated, kept
- Y2H growth relative to WT PCNA-expressing strain: Apn2 (Apn2): WT
- Y2H growth relative to WT PCNA-expressing strain: Rfc1 (Rfc1): WT
- effect of msh6 deletion on spontaneous mutation rate (CAN1 gene; Figure 6D): Suppression
- Spontaneous Mutation Rate Can^R (Fold Increase) (CAN1 gene): 7.3 fold
